Changes are numbered by the printed parent chain. Like-named read-outs stand apart in the source and are kept apart here.
T1: SpoIIIE motor domain (SpoIIIE C-terminal) (Bacillus subtilis, UniProt P21458 177-787)
T1 sequence: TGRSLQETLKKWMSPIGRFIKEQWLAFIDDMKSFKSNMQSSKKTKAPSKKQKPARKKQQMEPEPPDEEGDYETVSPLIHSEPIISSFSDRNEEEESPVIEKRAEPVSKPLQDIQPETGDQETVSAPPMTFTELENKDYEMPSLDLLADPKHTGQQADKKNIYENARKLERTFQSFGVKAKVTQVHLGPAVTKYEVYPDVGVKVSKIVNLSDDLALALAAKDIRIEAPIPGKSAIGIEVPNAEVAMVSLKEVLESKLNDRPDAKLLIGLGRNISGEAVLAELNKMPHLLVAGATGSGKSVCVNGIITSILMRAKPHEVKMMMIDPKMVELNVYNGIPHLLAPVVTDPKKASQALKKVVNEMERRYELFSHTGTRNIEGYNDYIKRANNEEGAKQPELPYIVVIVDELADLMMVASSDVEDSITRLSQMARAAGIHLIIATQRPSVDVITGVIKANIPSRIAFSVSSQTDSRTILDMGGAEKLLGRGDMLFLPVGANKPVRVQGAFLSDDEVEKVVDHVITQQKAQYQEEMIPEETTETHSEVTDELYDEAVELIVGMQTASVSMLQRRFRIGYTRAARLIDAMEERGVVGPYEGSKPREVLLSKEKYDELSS

T2: SpoIIIE467 (Walker A mutant) (Bacillus subtilis, UniProt P21458 177-787, G467S)
T2 sequence: T1 sequence with G291S

B1: SpoIIIE C-terminal motor domain (residues 177-787) with a C-terminal hexahistidine tag (domain or fragment, Bacillus subtilis, UniProt P21458 177-787, looked up)
chain: T1 sequence
B2: DNANS (43 bp, no SRS) (dsDNA)
DNA 1: GCGGAGGCGGGAGGCGGAGATCTTACCGCTGTTGAGATCCAGC
DNA 2: GCTGGATCTCAACAGCGGTAAGATCTCCGCCTCCCGCCTCCGC

Key:
[1] = target: the molecule itself; assay: negative-stain electron microscopy
[2] = target: T1, SpoIIIE motor domain (SpoIIIE …); assay: fluorescence anisotropy
[3] = target: T1, SpoIIIE motor domain (SpoIIIE …); assay: fluorescence anisotropy; remark: listed apart in the source
[4] = target: T1, SpoIIIE motor domain (SpoIIIE …); assay: fluorescence anisotropy; remark: listed apart in the source
[5] = target: T2, SpoIIIE467 (Walker A mutant); assay: fluorescence anisotropy

Binder | stoichiometry N [1] | Kd [2] | Kd [3] | Kd [4] | Kd [5]
B1 | 6 | – | – | – | –
B2 | – | 43 ± 9 nM | 61 ± 11 nM | 60 ± 9 nM | 63 ± 3 nM
